Measurements as given in US8703915B2, “Mutant proteins and methods for producing them” (Heptares Therapeutics Limited, priority 2009, dated 2014).

How the values were obtained:
[1] = tested on: 5HT2C receptor; assay: Antagonist binding to 5HT2C NPxxY motif alanine mutants (Table 1); set-up: species or system human; Average / Average - BG: unit not given here; settings: for % of Wildtype binding / DPM1 / DPM2: antagonist Mesulergine binding; for DPM1: replicate 1; for DPM2: replicate 2; for Average - BG: average minus background; for Average: average of DPM1 and DPM2
Description: (§1) An alanine scan was carried out in a similar fashion on an adenosine A2A receptor along with the 5HT2C receptor in the presence of the antagonist Mesulergine. Both alanine scans were carried out in order to further stabilize the antagonist conformation. […] The motif in Adenosine A2A is NPFIY (SEQ ID NO: 364) and for the 5HT2C is NPLVY (SEQ ID NO: 363). Therefore mutations in this region of the receptor contain stabilising mutations specific to the agonist conformation and detrimentally effect antagonist binding.
5HT2C receptor was solubilised from transiently transfected mammalian cells about 40 hours post transfection, in 50 mM Hepes pH7.4/100 mM KCl/0.5% DDM/(0.1% CHS/0.6% CHAPS was added to cells for SCH23390 agonist assay) and protease inhibitor. Cell lysates were left at 4° C. on a rotator and then cleared by centrifugation at 13,200 rpm for 20 minutes at 4° C. Thermostability analysis was performed directly on the soluble lysate. The Tm was determined by incubating 108 μl of the lysate with [N^6-methyl-^3H]Mesulergine radioligand at a final concentration of 17 nM or 9 nM [^3H]SCH23390 for one hour at 4° C. The six ligand incubations are then incubated at six different temperatures from 25° C. to 55° C., for thirty minutes. Receptor bound and free radioligand were separated using G25 Sephadex spin columns.

[2] = tested on: adenosine A2A receptor; assay: Antagonist binding to adenosine A2A NPxxY motif alanine mutants (Table 1); set-up: species or system human; settings: for % of Wildtype binding / DPM1 / DPM2: antagonist binding; for DPM1: replicate 1; for DPM2: replicate 2; for Average - BG: average minus background; for Average: average of DPM1 and DPM2
Description: as §1
Adenosine A2A receptor was solubilised from transiently transfected mammalian cells about 36 hours post transfection, in 50 mM Tris pH7.4/400 mM NaCl/0.5% DDM and protease inhibitor. Cell lysates were left at 4° C. on a rotator and then cleared by centrifugation at 13,200 rpm for 20 minutes at 4° C. Solubilised receptors were then purified on Ni-NTA beads and eluted with 50 mM histidine. The eluted receptor was used in radioligand binding assay. The Tm was determined by incubating 108 μl of the eluate with Zm241385 radioligand at a final concentration of 100 nM for one hour at 4° C. The six ligand incubations are then incubated at six different temperatures from 20° C. to 50° C., for thirty minutes. Receptor bound and free radioligand were separated using G25 Sephadex spin columns.

B1: V367A: 5HT2C receptor NPLVY motif mutant V367A (protein, UniProt P28335 33-458, looked up, variant V367A)
5-hydroxytryptamine receptor …: IVTDIFNTSDGGRFKFPDGVQNWPALSIVIIIIMTIGGNILVIMAVSMEKKLHNATNYFLMSLAIADMLVGLLVMPLSLLAILYDYVWPLPRYLCPVWISLDVLFSTASIMHLCAISLDRYVAIRNPIEHSRFNSRTKAIMKIAIVWAISIGVSVPIPVIGLRDEEKVFVNNTTCVLNDPNFVLIGSFVAFFIPLTIMVITYCLTIYVLRRQALMLLHGHTEEPPGLSLDFLKCCKRNTAEEENSANPNQDQNARRRKKKERRPRGTMQAINNERKASKVLGIVFFVFLIMWCPFFITNILSVLCEKSCNQKLMEKLLNVFVWIGYVCSGINPLAYTLFNKIYRRAFSNYLRCNYKVEKKPPVRQIPRVAATALSGRELNVNIYRHTNEPVIEKASDNEPGIEMQVENLELPVNPSSVVSERISSV
**Q.** B1 was tested. Which “% of Wildtype binding” value [1] did it give?
**A.** 22.25%

**Q.** And the DPM1 [1]?
**A.** 2512 DPM

**Q.** What about the DPM2 [1] of the same molecule?
**A.** 2449 DPM

**Q.** What about the “Average - BG” value [1] of the same molecule?
**A.** 2049

**Q.** What about the Average [1] of the same molecule?
**A.** 2480.5

B2: Y368A: 5HT2C receptor NPLVY motif mutant Y368A (protein, UniProt P28335 33-458, looked up, variant Y368A)
5-hydroxytryptamine receptor …: IVTDIFNTSDGGRFKFPDGVQNWPALSIVIIIIMTIGGNILVIMAVSMEKKLHNATNYFLMSLAIADMLVGLLVMPLSLLAILYDYVWPLPRYLCPVWISLDVLFSTASIMHLCAISLDRYVAIRNPIEHSRFNSRTKAIMKIAIVWAISIGVSVPIPVIGLRDEEKVFVNNTTCVLNDPNFVLIGSFVAFFIPLTIMVITYCLTIYVLRRQALMLLHGHTEEPPGLSLDFLKCCKRNTAEEENSANPNQDQNARRRKKKERRPRGTMQAINNERKASKVLGIVFFVFLIMWCPFFITNILSVLCEKSCNQKLMEKLLNVFVWIGYVCSGINPLVATLFNKIYRRAFSNYLRCNYKVEKKPPVRQIPRVAATALSGRELNVNIYRHTNEPVIEKASDNEPGIEMQVENLELPVNPSSVVSERISSV
**Q.** B2 was tested. Which “% of Wildtype binding” value [1] did it give?
**A.** 11.22%

**Q.** And the DPM1 [1]?
**A.** 1328 DPM

**Q.** And the DPM2 [1]?
**A.** 1602 DPM

**Q.** And the “Average - BG” value [1]?
**A.** 1033.5

**Q.** What about the Average [1] of the same molecule?
**A.** 1465

B3: P285A: adenosine A2A receptor NPFIY motif mutant P285A (protein, UniProt P29274 1-412, looked up, variant P285A)
Adenosine receptor A2a: MPIMGSSVYITVELAIAVLAILGNVLVCWAVWLNSNLQNVTNYFVVSLAAADIAVGVLAIPFAITISTGFCAACHGCLFIACFVLVLTQSSIFSLLAIAIDRYIAIRIPLRYNGLVTGTRAKGIIAICWVLSFAIGLTPMLGWNNCGQPKEGKNHSQGCGEGQVACLFEDVVPMNYMVYFNFFACVLVPLLLMLGVYLRIFLAARRQLKQMESQPLPGERARSTLQKEVHAAKSLAIIVGLFALCWLPLHIINCFTFFCPDCSHAPLWLMYLAIVLSHTNSVVNAFIYAYRIREFRQTFRKIIRSHVLRQQEPFKAAGTSARVLAAHGSDGEQVSLRLNGHPPGVWANGSAPHPERRPNGYALGLVSGGSAQESQGNTGLPDVELLSHELKGVCPEPPGLDDPLAQDGAGVS
**Q.** B3 was tested. Which “% of Wildtype binding” value [2] did it give?
**A.** 7.69%

**Q.** What about the DPM1 [2] of the same molecule?
**A.** 1488 DPM

**Q.** What about the DPM2 [2] of the same molecule?
**A.** 1471 DPM

**Q.** What about the “Average - BG” value [2] of the same molecule?
**A.** 979.5

**Q.** And the Average [2]?
**A.** 1479.5

B4: F286A: adenosine A2A receptor NPFIY motif mutant F286A (protein, UniProt P29274 1-412, looked up, variant F286A)
Adenosine receptor A2a: MPIMGSSVYITVELAIAVLAILGNVLVCWAVWLNSNLQNVTNYFVVSLAAADIAVGVLAIPFAITISTGFCAACHGCLFIACFVLVLTQSSIFSLLAIAIDRYIAIRIPLRYNGLVTGTRAKGIIAICWVLSFAIGLTPMLGWNNCGQPKEGKNHSQGCGEGQVACLFEDVVPMNYMVYFNFFACVLVPLLLMLGVYLRIFLAARRQLKQMESQPLPGERARSTLQKEVHAAKSLAIIVGLFALCWLPLHIINCFTFFCPDCSHAPLWLMYLAIVLSHTNSVVNPAIYAYRIREFRQTFRKIIRSHVLRQQEPFKAAGTSARVLAAHGSDGEQVSLRLNGHPPGVWANGSAPHPERRPNGYALGLVSGGSAQESQGNTGLPDVELLSHELKGVCPEPPGLDDPLAQDGAGVS
**Q.** Which results are given for B4?
**A.** % of Wildtype binding [2]: 0.13%; DPM1 [2]: 519 DPM; DPM2 [2]: 514 DPM; Average - BG [2]: 16.5; Average [2]: 516.5

B5: 287A: adenosine A2A receptor NPFIY motif mutant, residue 287 to alanine (protein, UniProt P29274 1-412, looked up, variant I287A)
Adenosine receptor A2a: MPIMGSSVYITVELAIAVLAILGNVLVCWAVWLNSNLQNVTNYFVVSLAAADIAVGVLAIPFAITISTGFCAACHGCLFIACFVLVLTQSSIFSLLAIAIDRYIAIRIPLRYNGLVTGTRAKGIIAICWVLSFAIGLTPMLGWNNCGQPKEGKNHSQGCGEGQVACLFEDVVPMNYMVYFNFFACVLVPLLLMLGVYLRIFLAARRQLKQMESQPLPGERARSTLQKEVHAAKSLAIIVGLFALCWLPLHIINCFTFFCPDCSHAPLWLMYLAIVLSHTNSVVNPFAYAYRIREFRQTFRKIIRSHVLRQQEPFKAAGTSARVLAAHGSDGEQVSLRLNGHPPGVWANGSAPHPERRPNGYALGLVSGGSAQESQGNTGLPDVELLSHELKGVCPEPPGLDDPLAQDGAGVS
**Q.** What does the source list for B5?
**A.** % of Wildtype binding [2]: 2.78%; DPM1 [2]: 888 DPM; DPM2 [2]: 820 DPM; Average - BG [2]: 354; Average [2]: 854

B6: Y288A: adenosine A2A receptor NPFIY motif mutant Y288A (protein, UniProt P29274 1-412, looked up, variant Y288A)
Adenosine receptor A2a: MPIMGSSVYITVELAIAVLAILGNVLVCWAVWLNSNLQNVTNYFVVSLAAADIAVGVLAIPFAITISTGFCAACHGCLFIACFVLVLTQSSIFSLLAIAIDRYIAIRIPLRYNGLVTGTRAKGIIAICWVLSFAIGLTPMLGWNNCGQPKEGKNHSQGCGEGQVACLFEDVVPMNYMVYFNFFACVLVPLLLMLGVYLRIFLAARRQLKQMESQPLPGERARSTLQKEVHAAKSLAIIVGLFALCWLPLHIINCFTFFCPDCSHAPLWLMYLAIVLSHTNSVVNPFIAAYRIREFRQTFRKIIRSHVLRQQEPFKAAGTSARVLAAHGSDGEQVSLRLNGHPPGVWANGSAPHPERRPNGYALGLVSGGSAQESQGNTGLPDVELLSHELKGVCPEPPGLDDPLAQDGAGVS
**Q.** B6 was tested. Which “% of Wildtype binding” value [2] did it give?
**A.** 14.74%

**Q.** And the DPM1 [2]?
**A.** 2150 DPM

**Q.** And the DPM2 [2]?
**A.** 2602 DPM

**Q.** What about the “Average - BG” value [2] of the same molecule?
**A.** 1876

**Q.** What about the Average [2] of the same molecule?
**A.** 2376

B7: N364A: 5HT2C receptor NPLVY motif mutant N364A (protein, UniProt P28335 33-458, looked up, variant N364A)
5-hydroxytryptamine receptor …: IVTDIFNTSDGGRFKFPDGVQNWPALSIVIIIIMTIGGNILVIMAVSMEKKLHNATNYFLMSLAIADMLVGLLVMPLSLLAILYDYVWPLPRYLCPVWISLDVLFSTASIMHLCAISLDRYVAIRNPIEHSRFNSRTKAIMKIAIVWAISIGVSVPIPVIGLRDEEKVFVNNTTCVLNDPNFVLIGSFVAFFIPLTIMVITYCLTIYVLRRQALMLLHGHTEEPPGLSLDFLKCCKRNTAEEENSANPNQDQNARRRKKKERRPRGTMQAINNERKASKVLGIVFFVFLIMWCPFFITNILSVLCEKSCNQKLMEKLLNVFVWIGYVCSGIAPLVYTLFNKIYRRAFSNYLRCNYKVEKKPPVRQIPRVAATALSGRELNVNIYRHTNEPVIEKASDNEPGIEMQVENLELPVNPSSVVSERISSV
**Q.** For B7, which “% of Wildtype binding” value [1] is on record?
**A.** 36.35%

**Q.** What about the DPM1 [1] of the same molecule?
**A.** 3988 DPM

**Q.** And the DPM2 [1]?
**A.** 3569 DPM

**Q.** What about the “Average - BG” value [1] of the same molecule?
**A.** 3347

**Q.** What about the Average [1] of the same molecule?
**A.** 3778.5

B8: P365A: 5HT2C receptor NPLVY motif mutant P365A (protein, UniProt P28335 33-458, looked up, variant P365A)
5-hydroxytryptamine receptor …: IVTDIFNTSDGGRFKFPDGVQNWPALSIVIIIIMTIGGNILVIMAVSMEKKLHNATNYFLMSLAIADMLVGLLVMPLSLLAILYDYVWPLPRYLCPVWISLDVLFSTASIMHLCAISLDRYVAIRNPIEHSRFNSRTKAIMKIAIVWAISIGVSVPIPVIGLRDEEKVFVNNTTCVLNDPNFVLIGSFVAFFIPLTIMVITYCLTIYVLRRQALMLLHGHTEEPPGLSLDFLKCCKRNTAEEENSANPNQDQNARRRKKKERRPRGTMQAINNERKASKVLGIVFFVFLIMWCPFFITNILSVLCEKSCNQKLMEKLLNVFVWIGYVCSGINALVYTLFNKIYRRAFSNYLRCNYKVEKKPPVRQIPRVAATALSGRELNVNIYRHTNEPVIEKASDNEPGIEMQVENLELPVNPSSVVSERISSV
**Q.** B8 was tested. Which “% of Wildtype binding” value [1] did it give?
**A.** 14.94%

**Q.** What about the DPM1 [1] of the same molecule?
**A.** 1855 DPM

**Q.** And the DPM2 [1]?
**A.** 1760 DPM

**Q.** What about the “Average - BG” value [1] of the same molecule?
**A.** 1376

**Q.** What about the Average [1] of the same molecule?
**A.** 1807.5
